Data reported in article PMC6640692, “Canine CD117-Specific Antibodies with Diverse Binding Properties Isolated from a Phage Display Library Using Cell-Based Biopanning” (Antibodies, 2019).

Biological target: T1, recombinant canine CD117-ECD-human-Fc fused protein (canine, UniProt O97799 28-527)
T1 construct: canine CD117 (c-Kit) extracellular domain, amplified by PCR from a GeneArt-synthesized CD117 template (NP_001003181); The forward primer begins at the ATG start codon (MRGARG), so the secretion signal appears to be in the construct; Dimer through disulfide linkage in the hFc domain (non-reducing SDS-PAGE); also called CD117-hFc; ECD-CD117-hFc; source: CHO-S cells, transient transfection, purified …
T1 sequence (O97799 28-527): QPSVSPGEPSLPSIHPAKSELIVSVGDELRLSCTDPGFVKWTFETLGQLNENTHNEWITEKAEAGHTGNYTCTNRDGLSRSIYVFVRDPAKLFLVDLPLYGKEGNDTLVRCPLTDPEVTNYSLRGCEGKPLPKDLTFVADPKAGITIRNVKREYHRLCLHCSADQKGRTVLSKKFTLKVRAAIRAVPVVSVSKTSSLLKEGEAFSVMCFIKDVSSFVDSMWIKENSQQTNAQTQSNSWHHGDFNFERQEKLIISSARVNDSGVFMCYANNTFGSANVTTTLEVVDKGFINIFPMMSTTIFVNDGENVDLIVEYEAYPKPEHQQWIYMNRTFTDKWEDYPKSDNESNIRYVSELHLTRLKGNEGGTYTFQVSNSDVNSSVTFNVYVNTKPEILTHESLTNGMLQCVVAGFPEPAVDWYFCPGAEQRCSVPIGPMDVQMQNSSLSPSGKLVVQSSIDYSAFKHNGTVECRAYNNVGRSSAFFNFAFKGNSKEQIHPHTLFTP
Test: ELISA; competitive ELISA: plate coated with 1 ug/mL canine CD117-hFc; 50 ng/mL canine SCF-His pre-mixed with serially diluted mAbs (from 40 ug/mL) in 2% MPBS, RT 1 h; bound SCF detected with anti-His HRP
Conditions: both partners purified

B1: recombinant canine stem cell factor (SCF)-His (ligand, UniProt Q06220 26-191, looked up)
chain: KGICGKRVTDDVKDVTKLVANLPKDYKIALKYVPGMDVLPSHCWISVMVEQLSVSLTDLLDKFSNISEGLSNYSIIDKLVKIVDDLVECTEGYSFENVKKAPKSPELRLFTPEEFFRIFNRSIDAFKDLETVASKSSECVVSSTLSPDKDSRVSVTKPFMLPPVAA
notes: signal peptide in the construct; canine SCF, secretion signal and the soluble part of the extracellular domain, NP_001012753.1 residues 1 to 191; also called canine SCF; SCF-His-tag; source: CHO-S cells, transient transfection, purified from supernatant (HisTrap excel IMAC)
Does B1 bind?
Result: binds
